Results as given in publication PMC7948927.

Columns and labels:
Assay in all cases: MST
[1] = molecular target: OGG1 S292N S292N (Homo sapiens) (UniProt O15527); conditions: saturation not reached; N at position 11 of strand 1 = THF (tetrahydrofuran abasic site analog), opposite C; MST: 100 nM labeled duplex, 0.0185-3.28 uM protein, 10 mM Na phosphate pH 7.5, 7% glycerol; temperature not stated
[2] = molecular target: OGG1 I145M I145M (Homo sapiens) (UniProt O15527); conditions: saturation not reached; N at position 11 of strand 1 = THF (tetrahydrofuran abasic site analog), opposite C; MST: 100 nM labeled duplex, 0.0185-3.28 uM protein, 10 mM Na phosphate pH 7.5, 7% glycerol; temperature not stated
Sequence of OGG1 I145M I145M (Homo sapiens) (O15527 whole entry I145M): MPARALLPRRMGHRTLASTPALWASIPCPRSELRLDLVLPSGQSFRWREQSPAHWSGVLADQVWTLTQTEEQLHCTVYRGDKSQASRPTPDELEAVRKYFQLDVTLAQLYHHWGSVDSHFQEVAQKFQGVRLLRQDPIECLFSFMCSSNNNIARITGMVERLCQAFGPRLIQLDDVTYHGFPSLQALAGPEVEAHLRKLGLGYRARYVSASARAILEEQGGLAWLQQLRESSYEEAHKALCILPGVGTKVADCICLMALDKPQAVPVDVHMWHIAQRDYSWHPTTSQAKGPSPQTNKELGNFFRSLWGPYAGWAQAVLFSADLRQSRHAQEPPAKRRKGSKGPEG

OGG1 WT (Homo sapiens) = OGG1 WT (Homo sapiens) (UniProt O15527); conditions: N at position 11 of strand 1 = THF (tetrahydrofuran abasic site analog), opposite C; MST: 100 nM labeled duplex, 0.0185-3.28 uM protein, 10 mM Na phosphate pH 7.5, 7% glycerol; temperature not stated
Sequence of OGG1 WT (Homo sapiens) (O15527 whole entry): as the sequence (O15527 whole entry I145M) above, with M145I counted along it

[3] = molecular target: OGG1 R161W R161W (Homo sapiens) (UniProt O15527); conditions: saturation not reached; N at position 11 of strand 1 = THF (tetrahydrofuran abasic site analog), opposite C; MST: 100 nM labeled duplex, 0.0185-3.28 uM protein, 10 mM Na phosphate pH 7.5, 7% glycerol; temperature not stated
Sequence of OGG1 R161W R161W (Homo sapiens) (O15527 whole entry R161W): as the sequence (O15527 whole entry I145M) above, with M145I, R161W counted along it

Sequence of OGG1 S292N S292N (Homo sapiens) (O15527 whole entry S292N): as the sequence (O15527 whole entry I145M) above, with M145I, S292N counted along it

“CTCTCCCTTCNCTCCTTTCCTCT / AGAGGAAAGGAGCGAAGGGAGAG [THF:C duplex]” showed a Kd [1] of 1390 nM, a Kd [2] of 900 nM and a Kd (OGG1 WT (Homo sapiens)) of 140 nM. For the same sequence, the Kd [3] was 1060 nM.
